The results in this text go back to the RNAGym collection of RNA variant scans (doi:10.7554/elife.80360).

The labels stand for the following.
B1: Hammerhead Ribozyme (parent)
chain: ACCGGAUGUGCUUUCCGGUCUGAUGAGUCCGUGAGGACGAAACAG

Variants of B1 are the subject of the data set. Put plainly: self-cleavage, relative activity (ratio to wild type); higher = more cleavage; co-transcriptional.
As for ACCGGAUGUGCUUUCCUGUCUCAUGAGUCCGUGAGGACGAAACAG, the self-cleavage is 0.314.
With ACCGGAUGUGCUUUCCUGUCUUAUGAGUCCGUGAGGACGAAACAG, the self-cleavage amounted to 0.359.
Take ACCGGAUGUGCUUUCCUGUCUAAUGAGUCCGUGAGGACGAAACAG: the self-cleavage came out at 0.368.
The value for ACCGGAUGUGCUUUCCCGUCUCAUGAGUCCGUGAGGACGAAACAG was 0.326; that for ACCGGAUGUGCUUUCCCGUCUUAUGAGUCCGUGAGGACGAAACAG was 0.284.
The value for ACCGGAUGUGCUUUCCUGUCUGAUGAGUCCGUGAGGACGUAACAG was 0.376; that for ACCGGAUGUGCUUUCCUGUCUGAUGAGUCCGUGAGGACGGAACAG was 0.388; that for ACCGGAUGUGCUUUCCUGUCUGAUGAGUCCGUGAGGACGCAACAG was 0.449.
On to ACCGGAUGUGCUUUCCCGGCUGAUGAGUCCGUGAGGACGAAACAG, for which the self-cleavage turned out to be 0.337.
Turning to ACCGGAUGUGCUUUCCCGCCUGAUGAGUCCGUGAGGACGAAACAG, the self-cleavage was found to be 0.332.
ACCGGAUGUGCUUUCCCGACUGAUGAGUCCGUGAGGACGAAACAG: the self-cleavage was found to be 0.335.
For the variant ACCGGAUGUGCUUUCCUGUCUGAUGAGUCCGUGAGGACGAAACAC, the self-cleavage worked out at 0.513.
On to ACCGGAUGUGCUUUCCUGUCUGAUGAGUCCGUGAGGACGAAACAU, for which the self-cleavage turned out to be 0.589.
The value for ACCGGAUGUGCUUUCCUGUCUGAUGAGUCCGUGAGGACGAAACAA was 0.436; that for ACCGGAUGUGCUUUCCUGUCUGAUGAGUCAGUGAGGACGAAACAG was 0.583.
Take ACCGGAUGUGCUUUCCUGUCUGAUGAGUCGGUGAGGACGAAACAG: the self-cleavage is 0.59.
Take ACCGGAUGUGCUUUCCUGUCUGAUGAGUCUGUGAGGACGAAACAG: the self-cleavage worked out at 0.755.
In the case of ACCGGAUGUGCUUUCCUAUCUGAUGAGUCCGUGAGGACGAAACAG it was 0.419.
In the case of ACCGGAUGUGCUUUCCUCUCUGAUGAGUCCGUGAGGACGAAACAG it was 0.503.
With ACCGGAUGUGCUUUCCUUUCUGAUGAGUCCGUGAGGACGAAACAG, the self-cleavage is 0.442.
On to ACCGGAUGUGCUUUCCCGUCUGAUGAGUCCGUGACGACGAAACAG, for which the self-cleavage was 0.403.
For the variant ACCGGAUGUGCUUUCCCGUCUGAUGAGUCCGUGAUGACGAAACAG, the self-cleavage is 0.371.
For the variant ACCGGAUGUGCUUUCCCGUCUGAUGAGUCCGUGAAGACGAAACAG, the self-cleavage turned out to be 0.535.
In the case of ACCGGAUGUGCUUUCCUGUCUGAUGAGUCCGUGAGGAGGAAACAG it was 0.539; in that of ACCGGAUGUGCUUUCCUGUCUGAUGAGUCCGUGAGGAAGAAACAG, 0.465; in that of ACCGGAUGUGCUUUCCUGUCUGAUGAGUCCGUGAGGAUGAAACAG, 0.758.
Take ACCGGAUGUGCUUUCCCGUCUGAUGAGUCCGUGAGGACGAAACAA: the self-cleavage was found to be 0.366.
The value for ACCGGAUGUGCUUUCCCGUCUGAUGAGUCCGUGAGGACGAAACAC was 0.4.
In the case of ACCGGAUGUGCUUUCCCGUCUGAUGAGUCCGUGAGGACGAAACAU it was 0.394; in that of ACCGGAUGUGCUUUCCUGUCUGAUGAGUCCGUGAGCACGAAACAG, 0.336; in that of ACCGGAUGUGCUUUCCUGUCUGAUGAGUCCGUGAGAACGAAACAG, 0.621.
ACCGGAUGUGCUUUCCUGUCUGAUGAGUCCGUGAGUACGAAACAG: the self-cleavage was found to be 0.46.
With ACCGGAUGUGCUUUCCCGUCUGAUGAGUCCGGGAGGACGAAACAG, the self-cleavage was 0.545.
In the case of ACCGGAUGUGCUUUCCCGUCUGAUGAGUCCGAGAGGACGAAACAG, the self-cleavage was 0.497.
Turning to ACCGGAUGUGCUUUCCCGUCUGAUGAGUCCGCGAGGACGAAACAG, the self-cleavage was determined as 0.444.
The value for ACCGGAUGUGCUUUCCUGUCUGAUGAGUCCGUAAGGACGAAACAG was 0.862; that for ACCGGAUGUGCUUUCCUGUCUGAUGAGUCCGUUAGGACGAAACAG was 0.9.
As for ACCGGAUGUGCUUUCCUGUCUGAUGAGUCCGUCAGGACGAAACAG, the self-cleavage amounted to 0.851.
As for ACCGGAUGUGCUUUCCUGUCUGAUGAGUCCGUGAGGACAAAACAG, the self-cleavage was determined as 0.328.
Turning to ACCGGAUGUGCUUUCCUGUCUGAUGAGUCCGUGAGGACUAAACAG, the self-cleavage is 0.357.
Turning to ACCGGAUGUGCUUUCCUGUCUGAUGAGUCCGUGAGGACCAAACAG, the self-cleavage turned out to be 0.348.
ACCGGAUGUGCUUUCCCGUCAGAUGAGUCCGUGAGGACGAAACAG: the self-cleavage worked out at 0.306.
On to ACCGGAUGUGCUUUCCCGUCCGAUGAGUCCGUGAGGACGAAACAG, for which the self-cleavage came to 0.275.
With ACCGGAUGUGCUUUCCCGUCGGAUGAGUCCGUGAGGACGAAACAG, the self-cleavage is 0.352.
In the case of ACCGGAUGUGCUUUCCCGUCUGAUGAGUCCGUGAGGACCAAACAG, the self-cleavage came to 0.291.
As for ACCGGAUGUGCUUUCCCGUCUGAUGAGUCCGUGAGGACUAAACAG, the self-cleavage came out at 0.33.
ACCGGAUGUGCUUUCCCGUCUGAUGAGUCCGUGAGGACAAAACAG: the self-cleavage worked out at 0.342.
For the variant ACCGGAUGUGCUUUCCUGUCUGAUGAGUCCGUGAGGACGAAACCG, the self-cleavage was 0.495.
For the variant ACCGGAUGUGCUUUCCUGUCUGAUGAGUCCGUGAGGACGAAACUG, the self-cleavage came out at 0.469.
With ACCGGAUGUGCUUUCCUGUCUGAUGAGUCCGUGAGGACGAAACGG, the self-cleavage worked out at 0.877.
In the case of ACCGGAUGUGCUUUCCUGUCUGAUGAGUACGUGAGGACGAAACAG it was 0.523; in that of ACCGGAUGUGCUUUCCUGUCUGAUGAGUUCGUGAGGACGAAACAG, 0.748; in that of ACCGGAUGUGCUUUCCUGUCUGAUGAGUGCGUGAGGACGAAACAG, 0.591.
Consider ACCGGAUGUGCUUUCCUGUCUGAUGAAUCCGUGAGGACGAAACAG, for which the self-cleavage stood at 0.643.
For the variant ACCGGAUGUGCUUUCCUGUCUGAUGAUUCCGUGAGGACGAAACAG, the self-cleavage is 0.513.
In the case of ACCGGAUGUGCUUUCCUGUCUGAUGACUCCGUGAGGACGAAACAG it was 0.486.
For the variant ACCGGAUGUGCUUUCCUGUCUGUUGAGUCCGUGAGGACGAAACAG, the self-cleavage is 0.35.
